No end group written: not given here.
Biological target: T1, human GLP-1 receptor (human, UniProt P43220)
Assay: cell-based or functional assay

Molecule | GLP-1 receptor activation relative to Val^8-GLP-1(7-37)OH
HVEGTFTSDWSSYLEEQAVKEFIAWLIKGRG [Val^8-Trp^16-Glu^22-Val^25-Ile^33-GLP-1(7-37)OH] | 5 relative potency
HVEGTFTSDYSSYLEGQAAKEFIAWLVKGRG [Val^8-Tyr^16-GLP-1(7-37)OH] | 2.5 relative potency
HVEGTFTSDWSSYLEEQAAKEFIAWLIKGRG [Val^8-Trp^16-Glu^22-Ile^33-GLP-1(7-37)OH] | 4.1 relative potency
HVEGTFTSDVSIYLEEQAAKEFIAWLVKGRG [Val^8-Ile^18-Glu^22-GLP-1(7-37)OH] | 4 relative potency
HVEGTFTSDYSSWLEEQAAKEFIAWLVKGRG [Val^8-Tyr^16-Trp^19-Glu^22-GLP-1(7-37)OH] | 3.5 relative potency
HVEGTFTSDLSSYLEGQAAKEFIAWLVKGRG [Val^8-Leu^16-GLP-1(7-37)OH] | 1.1 relative potency
HVEGTWTSDVSSYLEEQAAKEFIAWLVKGRG [Val^8-Trp^12-Glu^22-GLP-1(7-37)OH] | 1.7 relative potency
HVEGTFTSDVSSYLEEQALKEFIAWLVKGRG [Val^8-Glu^22-Leu^25-GLP-1(7-37)OH] | 2.8 relative potency
HVEGTFTSDYSSFLEGQAAKEFIAWLVKGRG [Val^8-Tyr^16-Phe^19-GLP-1(7-37)OH] | 2.8 relative potency
HGEGTFTSDVSSYLEGQAAKEFIAWLVKGRG [Gly^8-GLP-1(7-37)OH] | 1.7 relative potency
HVEGTFTSDLSSYLEEQAAKEFIAWLVKGRG [Val^8-Leu^16-Glu^22-GLP-1(7-37)OH] | 4.3 relative potency
HVEGTFTSDVSSYLEEQAAKIFIAWLVKGRG [Val^8-Glu^22-Ile^27-GLP-1(7-37)OH] | 2 relative potency
HVEGTFTSDISSYLEEQAAKEFIAWLVKGRG [Val^8-Ile^16-Glu^22-GLP-1(7-37)OH] | 3.3 relative potency
HVEGTFTSDVSSYLEEQAIKEFIAWLVKGRG [Val^8-Glu^22-Ile^25-GLP-1(7-37)OH] | 3.1 relative potency
HVEGTFTSDVSSYFEEQAAKEFIAWLVKGRG [Val^8-Phe^20-Glu^22-GLP-1(7-37)OH] | 2.7 relative potency
HVEGTFTSDVSSYLEGQALKEFIAWLVKGRG [Val^8-Leu^25-GLP-1(7-37)OH] | 0.5 relative potency
HVEGTFTSDFSSYLEEQAAKEFIAWLVKGRG [Val^8-Phe^16-Glu^22-GLP-1(7-37)OH] | 2.3 relative potency
HVEGTFTSDWSSYLEEQAVKEFIAWLVKGRG [Val^8-Trp^16-Glu^22-Val^25-GLP-1(7-37)OH] | 4.4 relative potency
HVDGIFTSDYSSYLEEQAAKEFIAWLVKGRG [Val^8-Asp^9-Ile^11-Tyr^16-Glu^22-GLP-1(7-37)OH] | 4.3 relative potency
HVEGTYTSDVSSYLEGQAAKEFIAWLVKGRG [Val^8-Tyr^12-GLP-1(7-37)OH] | 1.7 relative potency
HVEGTYTSDVSSYLEEQAAKEFIAWLVKGRG [Val^8-Tyr^12-Glu^22-GLP-1(7-37)OH] | 2.7 relative potency
HVEGTFTSDVSSWLEEQAAKEFIAWLVKGRG [Val^8-Trp^19-Glu^22-GLP-1(7-37)OH] | 3.2 relative potency
HVEGTWTSDVSSYLEGQAAKEFIAWLVKGRG [Val^8-Trp^12-GLP-1(7-37)OH] | 1.1 relative potency
HVEGTFTSDVSSFLEEQAAKEFIAWLVKGRG [Val^8-Phe^19-Glu^22-GLP-1(7-37)OH] | 1.5 relative potency
HVEGTFTSDVSKYLEEQAAKEFIAWLVKGRG [Val^8-Lys^18-Glu^22-GLP-1(7-37)OH] | 2.5 relative potency
HVEGTFTSDVSFYLEEQAAKEFIAWLVKGRG [Val^8-Phe^18-Glu^22-GLP-1(7-37)OH] | 2 relative potency
HVEGTYTSDYSSYLEGQAAKEFIAWLVKGRG [Val^8-Tyr^12-Tyr^16-GLP-1(7-37)OH] | 1.5 relative potency
HVEGTYTSDVSSYLEGQAAKEFIAWLVKGR-NH2 [Val^8-Tyr^12-GLP-1(7-36)NH2] | 1.1 relative potency

Biological target: T1, human GLP-1 receptor
Assay: cell-based or functional assay
Remark: another data set of the same source

Molecule | GLP-1 Receptor Activation (relative to GLP-1(7-37)OH)
HVEGTFTSDVSSYLEGQAAKEFIAWLVKGGP-NH2 [Val^8-Gly^36-Pro^37-GLP-1(7-37)NH2] | 0.53 relative potency
HVEGTFTSDYSSYLEGQAAKEFIAWLVKGRG [Val^8-Tyr^16-GLP-1(7-37)OH] | 1.18 relative potency
HVEGKFTSDVSSYLEGQAAKEFIAWLVKGRG [Val^8-Lys^11-GLP-1(7-37)OH] | 0.001 relative potency
HVEGTFTSDASSYLEGQAAKEFIAWLVKGRG [Val^8-Ala^16-GLP-1(7-37)OH] | 0.112 relative potency
HVEGTFTSDESSYLEGQAAKEFIAWLVKGRG [Val^8-Glu^16-GLP-1(7-37)OH] | 0.047 relative potency
HVEGTYTSDVSSYLEGQAAKEFIAWLVKGRG [Val^8-Tyr^12-GLP-1(7-37)OH] | 0.81 relative potency

Biological target: T1, human GLP-1 receptor
Assay: not given

Molecule | GLP-1 receptor activation relative to Val^8-GLP-1(7-37)OH (relative potency)
Val^8-Val^16-GLP-1(7-37)OH (peptide) | 1.1
Val^8-Cys^16-Lys^26-GLP-1(7-37)OH (peptide) | 4.2
Val^8-Cys^16-Lys^26-Arg^34-GLP-1(7-37)OH (peptide) | 1.9

Reference: patent US20040235710A1, “Pre-mixes of glp-1 and basal insulin” (published 2004)
